Experiment: soluble on expression in E. coli; label from the status in PepcDB or PDB records

Row | Sequence | soluble on expression in E. coli
1 | MSLRLKTILLTTMATGSFLCEPVAAMCIEPPATPDMGWFLKKKKKSNPQDSIKVKNEYEKLTGSDSVVRRGMFNVYQKKNDYYFEIPSTLLERDMLVVNKLQRVPAELNEAGVNRGTNYENQMIRFELDKSANKLLIRQSRPLPISPSEDAISQSVKDNYISPLIAGFKVEAYNNDSTSILIKVNDIYDGTETSINNVFTNINLGTSAIKNLSRILSIKSFDNNVVATSELTTRVTEGTTTIYVTVEVSSSILLLPEVPMTGRLDNPRVGYFTNPLTNFSDGQQRVNKKQFITRWRLEPRPEDRAAYLRGELVEPRKPIVFYIENSTPYRWRKYIKQGIEDWQVAFERAGFKNAIIAKDITEDMEVDMDDVNYSVLTYAASTKANAMGPSILDPRSGEILEADIMWWHNVLSMLQEWITVQTGVVRPEARGVALPDSLMGDAMRFVACHEVGHSLGLRHNMMGSWAFPTDSLRSKTFTDRMNSTSSSIMDYARFNYVAQPGDGIKALSPHIGPYDMFAIEYGYRWYGKQTPEEEKELLQDFLAKHTDRLYKYSEAQDEGHHHHHH | soluble
2 | MLALGKLLELTLAGREPAEKTQLTVEGVRMRWLAEGALEVRPPQARDNGTDLLLSAGIHGNETAPIELLDELIRSIARGDLKPRARILFLFGNPAAMRLGARYVEQDVNRLFNGRHEQSGGAEALRACELERLAASFFSLPDRYRLHYDLHTAIRGSKIEQFALYPWKEGRQHSRFELARLRAAGISAVLLQNKPSIVFSAYTYEQLGAEAFTLELGKARPFGQNRHVNLAPLRLRLEQIIEGSEPQPDERLEGLQLFSVAREVIKRSDAFTFNLADDVENFSELEKGYVLAEDVSDSRWVVKEEGARIIFPNPKVKNGLRAGIVIVPADADGLGLEHHHHHH | not soluble
3 | MVNLANVLTNATAATLSAWSNTVPLETYFHFDEASGFGDYYLNVSVIWMNETLYETRIVPAIINVREWLDHMEANDPSPSVTNPYETSGYYAFSTVVPVLMGNMKVA | not soluble
4 | MDQFSEPEETQVEQVENPDRNEAGYEVCNQSGENLSVAIAYFDTSIDSYRSEGWWNLDQSKCQFFPNLLDSVDEVYVFAESDQTLWSGDFPFCMQEDAFEYPDANRDRCPSPAYSKGFLKVEVGDAKTWTTLEHHHHHH | soluble
5 | SNAMSTHVTFDYSKALSFIGEHEITYLRDAVKVTHHAIHEKTGAGNDFLGWVDLPLQYDKEEFARIQKCAEKIKNDSDILLVVGIGGSYLGARAAIEMLNHSFYNTLSKEQRKTPQVLFVGQNISSTYMKDLMDVLEGKDFSINVISKSGTTTEPALAFRIFRKLLEEKYGKEEARKRIYATTDKARGALKTLADNEGYETFVIPDDVGGRFSVLTPVGLLPIAVSGLNIEEMMKGAAAGRDDFGTSELEENPAYQYAVVRNALYNKGKTIEMLINYEPALQYFAEWWKQLFGESEGKDQKGIFPSSANFSTDLHSLGQYVQEGRRDLFETVLKVGKSTHELTIESEENDLDGLNYLAGETVDFVNTKAYEGTLLAHSDGGVPNLIVNIPELNEYTFGYLVYFFEKACAMSGYLLGVNPFDQPGVEAYKKNMFALLGKPGFEELKAELEERLK | soluble
6 | MYHNNNYGYNNHRGGGGFRHNNYNNNNNNHHHHYNNLPRINETQVPQSKHTIFIRGLHGDISTEEIKEYIGEKVGKISFDFVKVAQDKSKIFVAVRFENRDEAKEFMETYSDREFMGCRCDLSWFRDIRRYCAYQRAKQVRSNSQRRRRRSDSQESSKRSASPPVRRGRSKSRSRSRSPSRSRSRSRSRSVSRSKSPASRNGRVSRHRSRSQNRSRSRSNTRSRSRSSGRSGSAHSRKSDDVDSFDDESFDEKSRVKDNEARQKRRRELSDDDRKDVRETQPKKSVKEELPQIPLPPKTEAAASPSPAPPTPKASKSASFIPPPTADDMELESPPHVSNNQYEYQQSNNTYNQIRTGASPVSVSYSVPMEVEATPKMIVRETPQPAQPPVQVNSYYTTTPIQQQQQQQQPIPPQLPTACAPVCKYLTKIFRVETRYHIPRGANFHVCVIRFSPPQPPPTTPQPAFVPRQIGRIEIVMPSSLPAPVVSAAAASASAAAHPVAMNGSAISGGSSMPDITMHPNTNKLFGHLKAFQSALLSTVKYEPPARKEEDEAGFSTLRLSSLATEDDSADEEKAMVRELKLAKLNDEQMMRFHIKKKQLESAFRNDCETYAVVTRALLAKDESLQFGLKMALLENMEDLYKKMMQRVDDQLDALLVMA | not soluble
7 | MGSDKIHHHHHHMWVRVPPPAPFSIFLSPGDDIVKRRKSTRTSSFGVKGRESHDSSPFYSRAIYSNFSLPKPSEEDLIENPLPENLLDKVIEGDAREVLKKIPDCSIHLMVTSPPYNVGKEYDEDMTLDEYLEFIEEIMKEVYRVLVWGGRACFNVANLGRKPYIPLHAYLIHLFEKIGFLIRGEIIWDKGEAVSGSSTAWGSWMSPVNPVLRDQHEYIIVMSKGDLKRRKPSDREAKSTITREEFLEFTRSVWKFPPESAKRVGHPAPFPEELPYRCIQLYTFKGDVVLDPFAGVGTTCVAAVKTGRHFVGIEINPEYVKKAEERVKDILSKPTLFEDHC | not soluble
8 | MSNAPLMPKATAVWLLDNTALTFDQVADFTKMHVLEVKAIADGDAAQGIKGMDPISTGQLTRDEIEKGEGDPDYRLKLAESKVVLPQAAKKKGPRYTPVSRRHERPSAILWLVRNHPELKDAQIMRLVGTTKTTIASVRDRTHWNAATLTPMDPVTLGLCSQLDLDFEVQRAAKEKPIDQQYGGATLLPASETTRKEAEFEAATSGKSQEDLDVDAVFAKLKTIGGKKHDDEDEDGGFLEHHHHHH | soluble
9 | MTTTGLRPRLNVRQRKDTGYLPHSSPFSLQFRPAILYSDGYLPQVPEDKNETDKIHTPRIVPQKLERTPSDTSRSRGCHCFYAGWL | not soluble
10 | MGATEVGDENAGTVSAQPCSRQCCLEDFWALLRRHPAPEPPPWTPVLYPLRTSLPSTLAVFLNLGLSFPKTSITSSWRDWTLHLPFAWSLSVRGPSQCVHVRGGGDHIRRRGG | not soluble
11 | MLLFLTIILILVGGCTPKTKEVVLKNRNYVVIKEGKPALSEEDIIKLSRSLYVNKVNRPEVLRALKSLLTKRESLKYAFYRMKLYENIIVPILRSYGLPEEFKYLPIVESMYNPFAVSRSGAAGIWQLMPQTARRYGLIVRKDYDERFDVVKSTHAAAKYLRDLLEEFKNLELVLAAYNCGENCIRRNVNYNFWKERRKLPKETQNYVPLFLATLLIAQNPEYYGIHLYEPSREIAIVKVGIPMSVEDFLIMYSMNESRFRDLNPHIRGRKIPKNANVYVEERKLVKGEYLLRARGREE | not soluble
12 | MKHWFNIALAALALSSATVQAATEVKVGMSGRYFPFTFVKQDELQGFEVDVWNEIGKRNDYKVEFVTANFSGLLGLLETGRIDTISNQITITDARKAKYLFSDPYVIDGAQITVRKGNEAIKGIDDLAGKTVAVNLGSNFEQLLRNHDKDGKINIKTYDTGIEHDVALGRADAFVMDRLSALELIEKTGLPLQLAGSPFETIENAWPFVNNEKGQQLQGEVNKALAAMRADGTLSQIALKWFGTDISQ | not soluble
13 | MVVKEKVVNEMQEVKEMIDTLVNNGRKALQALESFTQEQIDNIVHEMALAGVDQHMPLAKLAVEETGRGVYEDKCIKNIFATEYIWHSIKKDKTVGIIHEDPHEEIIEIAEPVGVVAGVTPVTNPTSTTMFKALIAIKTRNPIIFAFHPSAQNCSVAAAKTVYDAAVKAGAPKHCIQWIEKPSVEATKQLMNHEGVALVLATGGAGMVKSAYSTGKPALGVGPGNVPCYIEKSAHIKRAVNDLILSKTFDNGMICASEQAIIVDKEIYDDVKTEMITNDCYFVTEEERRKLEKLVINENTCAVNSDIVGKSAQYIAELVGITVPKNTKMLVAEIQGIGAAYPLSREKLSPVLACVKANSLEEGFTYCEEMLNLGGLGHSAVIHSVNKEVQKQFGLRMKACRLIVNAPSSQGGIGDIYNGFIPSLTLGCGSYGKNSVSQNVTATHLLNIKRLANRKKNMQWFKLPPKIYFEKHATAYLANMPNISRAFIVTDPGMVEHGYVDTVAHYLRKHANDVKVEVFFEVEPDPSDETVFKGAEMMRSFQPDVIIALGGGSAMDAAKGMWLFYEYPETTFYGIKQKFLDIRKRTCKYPELGSKAQFVAIPTTSGTGSEVTPFAVITDKKNNIKYPLADYELTPDVAIVDPQFVMTVPPHVTADTGMDVLTHAIEAYVSVLANDYTDGLALKAIDLVFKYLPRAFKDGHDEEAREKMHNASAIAGMAFANAFLGINHSLAHKIGPEFHIPHGRANAILMPHVIRYNAIKPRKHALFPKYEHFVADERYAHIARMLGLPASSVAEGVESLDKAIIDLGKSLNINMSIAGQGVAKDQFEEVVGLLAERAFEDQCTTANPKLPLISELKEIYMKAYKGE | not soluble

From the DeepSol protein solubility set
